For this data set, the target named is streptavidin (UniProt P22629 25-183). The experiment in a line: aptamer microarray.
Sequence of streptavidin (P22629 25-183): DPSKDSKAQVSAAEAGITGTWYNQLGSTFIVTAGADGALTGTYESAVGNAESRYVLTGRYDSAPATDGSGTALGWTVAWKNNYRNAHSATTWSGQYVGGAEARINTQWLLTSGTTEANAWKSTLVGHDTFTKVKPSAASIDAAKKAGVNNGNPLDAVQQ

Take ATTGACCGCTGTGTGACGCAACACTCAATTTTTTTTTTTT (structured_DNA) [St-2-1_T11]: the binding result was “binds”.

For the origin of these results see article PMC3686109.
